Experiments:
Settings in all cases: both partners purified
[1] = target: T1, RPN13 Pru (1–150), oxidized (UniProt Q16186 1-150, oxidized with 0.05 % H2O2; the oxidized residues are not given); assay: ITC; RPN2 (940–953) in the syringe (205.7 or 160 μM), RPN13 Pru in the cell (20.57 or 16 μM); 25 °C, non-reducing buffer: 20 mM sodium phosphate, 50 mM NaCl, pH 6.0; one-site fit
T1 construct: RPN13 Pru domain, residues 1-150; also called oxi-RPN13^Pru; not shown: His6, N-terminal, cleaved

[2] = target: T2, oxi-RPN13^Pru following incubation with 3-fold molar excess TXNL1^Trx (UniProt Q16186 1-150, oxidized with 0.05 % H2O2, then treated with TXNL1 Trx); assay: as above
T2 construct: RPN13 Pru domain, residues 1-150; source: E. coli BL21(DE3) pLysS, purified; not shown: His6, N-terminal, cleaved
T2 sequence (Q16186 1-150): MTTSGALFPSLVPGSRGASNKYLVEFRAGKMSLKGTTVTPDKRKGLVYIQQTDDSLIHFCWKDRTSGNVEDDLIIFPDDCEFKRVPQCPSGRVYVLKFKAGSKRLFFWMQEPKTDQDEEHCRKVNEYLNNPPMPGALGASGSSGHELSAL

[3] = target: T3, RPN13 Pru (1–150), reduced (UniProt Q16186 1-150); assay: ITC; RPN2 (940–953) in the syringe (156 μM), RPN13 Pru in the cell (15.6 μM); 25 °C, reducing buffer: 20 mM sodium phosphate, 50 mM NaCl, 10 mM βME, pH 6.0; one-site fit
T3 construct: Kept in reducing ITC buffer (10 mM βME); also called redu RPN13^Pru; RPN13 (1–150); source: E. coli BL21(DE3) pLysS, purified (Talon resin, PreScission elution, Superdex 75); not shown: His6, N-terminal, cleaved
T3 sequence (Q16186 1-150): as above

T1 sequence (Q16186 1-150): as above

Kd [1]: 40 ± 15.3 nM
Kd [2]: 18.9 ± 5.7 nM
Kd [3]: 12.4 ± 5.29 nM
B1: RPN2 peptide (940–953) (peptide, UniProt Q99460 940-953, looked up)
chain: QEPEPPEPFEYIDD
notes: The construct has a PreScission site after GST, but the methods tell only of elution as the GST fusion; ITC and NMR speak of the RPN2 peptide; also called RPN2 (940–953); RPN2^940–953

From publication doi:10.1101/2025.07.31.667872 (bioRxiv, 2025)
